Results on 1 molecule are retold here after US20090041754A1 (Astellas, published 2009).

In the experiment the target is T1, human ATP5B protein with C-terminal V5 epitope, made in vitro from pcDNA-ATP5B (human, UniProt P06576 1-529, radioisotope-labelled (L-[35S] Pro-mix)).
T1 construct: In vitro transcription and translation (TNT system); about 60 kDa; also called wild type ATP5B
As to the kind of experiment: GST pull-down of 35S-labelled in vitro translated human ATP5B with GST-DHFR on beads, autoradiography; condition without MTX-phenformin. The procedure:
A 15 μl portion of this human ATP5B protein preparation liquid and 1 μg for each of the GST protein or GST-DHFR, purified on the glutathione Sepharose beads, were mixed and shaken at 4° C. for 1 hour after adding 0.3 ml of buffer A thereto. Thereafter, the protein binding to the GST protein or GST-DHFR on beads was co-precipitated by centrifugation.

T1 sequence (P06576 whole entry): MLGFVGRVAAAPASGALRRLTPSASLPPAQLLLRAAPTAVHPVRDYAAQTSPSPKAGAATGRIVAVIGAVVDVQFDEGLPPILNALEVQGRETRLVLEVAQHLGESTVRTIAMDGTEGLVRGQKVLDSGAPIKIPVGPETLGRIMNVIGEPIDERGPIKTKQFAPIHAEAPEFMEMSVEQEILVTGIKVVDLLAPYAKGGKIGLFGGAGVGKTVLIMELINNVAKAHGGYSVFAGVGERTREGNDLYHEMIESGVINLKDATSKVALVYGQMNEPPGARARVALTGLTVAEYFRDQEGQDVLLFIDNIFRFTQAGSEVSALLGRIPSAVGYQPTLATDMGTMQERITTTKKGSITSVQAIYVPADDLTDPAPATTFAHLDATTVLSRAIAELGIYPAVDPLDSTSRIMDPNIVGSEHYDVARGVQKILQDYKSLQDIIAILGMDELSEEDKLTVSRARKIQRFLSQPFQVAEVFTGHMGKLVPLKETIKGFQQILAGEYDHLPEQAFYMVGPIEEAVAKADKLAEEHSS

B1: GST fusion DHFR protein (other, human, UniProt P00374 1-187, looked up)
chain: MVGSLNCIVAVSQNMGIGKNGDLPWPPLRNEFRYFQRMTTTSSVEGKQNLVIMGKKTWFSIPEKNRPLKGRINLVLSRELKEPPQGAHFLSRSLDDALKLTEQPELANKVDMVWIVGGSSVYKEAMNHPGHLKLFVTRIMQDFESDTFFPEIDLEKYKLLPEYPGVLSDVQEEKGIKYKFEVYEKND
notes: domain: complete length; Expressed in E. coli BL21 and purified on glutathione Sepharose beads (45 kDa); also called GST-DHFR; not shown: GST tag of vector pGEX-6P-1 (Amersham)
As for B1, the binding result was “no binding”.
